Results from article PMC2888818.

Target: LetA (UniProt Q8KQL1 1-219)
Assay: EMSA

Binder	binding result
rsmY upstream 35mer (dsDNA) DNA 1: CTCTTCTTAATTGAGAAATTTCTTACATATTACTGC DNA 2: GCAGTAATATGTAAGAAATTTCTCAATTAAGAAGAG	binds
rsmZ upstream 35mer (dsDNA) DNA 1: GTAATTGATGTAAGAAATTTCTCAATTCCATAGA DNA 2: TCTATGGAATTGAGAAATTTCTTACATCAATTAC	binds
